Source: patent US20110269680A1 (PANACEA BIOTEC, published 2011)
Numbered stars: 1 amine (or outer) side, 2 acyl side, 3 side chain; on linkers, the order of the positions; unused ones are H or OH. Square brackets hold non-standard residues; d marks the D form. Ends that are not written are not given here. X2 = 2‑amino‑1‑O‑methyl‑2‑deoxy‑alpha‑D‑glucopyranuronic acid, CO[C@H]1O[C@H](C(=O)[*:2])[C@@H](O)[C@H](O)[C@H]1N[*:1]; 2Furoyl(5-aminomethyl) = O=C(c1ccc(CN[*:1])o1)[*:2]; Aib = CC(C)(N)C(=O)O

B1: Seq ID No. 02 (peptide)
peptide: H[2Furoyl(5-aminomethyl)]GTFTSDVSSYLEGQAAKEFIAWLVKGRG-NH2
modifications: N-terminus assumed
SMILES: CC[C@H](C)[C@H](NC(=O)[C@H](Cc1ccccc1)NC(=O)[C@H](CCC(=O)O)NC(=O)[C@H](CCCCN)NC(=O)[C@H](C)NC(=O)[C@H](C)NC(=O)[C@H](CCC(N)=O)NC(=O)CNC(=O)[C@H](CCC(=O)O)NC(=O)[C@H](CC(C)C)NC(=O)[C@H](Cc1ccc(O)cc1)NC(=O)[C@H](CO)NC(=O)[C@H](CO)NC(=O)[C@@H](NC(=O)[C@H](CC(=O)O)NC(=O)[C@H](CO)NC(=O)[C@@H](NC(=O)[C@H](Cc1ccccc1)NC(=O)[C@@H](NC(=O)CNC(=O)c1ccc(CNC(=O)[C@@H](N)Cc2c[nH]cn2)o1)[C@@H](C)O)[C@@H](C)O)C(C)C)C(=O)N[C@@H](C)C(=O)N[C@@H](Cc1c[nH]c2ccccc12)C(=O)N[C@@H](CC(C)C)C(=O)N[C@H](C(=O)N[C@@H](CCCCN)C(=O)NCC(=O)N[C@@H](CCCNC(=N)N)C(=O)NCC(N)=O)C(C)C
B2: Seq ID No. 10 (peptide)
peptide: H[2Furoyl(5-aminomethyl)]GTFTSD[Aib]SSYLEGQAAKEFI[Aib]WLVKGRG-NH2
modifications: N-terminus assumed
SMILES: CC[C@H](C)[C@H](NC(=O)[C@H](Cc1ccccc1)NC(=O)[C@H](CCC(=O)O)NC(=O)[C@H](CCCCN)NC(=O)[C@H](C)NC(=O)[C@H](C)NC(=O)[C@H](CCC(N)=O)NC(=O)CNC(=O)[C@H](CCC(=O)O)NC(=O)[C@H](CC(C)C)NC(=O)[C@H](Cc1ccc(O)cc1)NC(=O)[C@H](CO)NC(=O)[C@H](CO)NC(=O)C(C)(C)NC(=O)[C@H](CC(=O)O)NC(=O)[C@H](CO)NC(=O)[C@@H](NC(=O)[C@H](Cc1ccccc1)NC(=O)[C@@H](NC(=O)CNC(=O)c1ccc(CNC(=O)[C@@H](N)Cc2c[nH]cn2)o1)[C@@H](C)O)[C@@H](C)O)C(=O)NC(C)(C)C(=O)N[C@@H](Cc1c[nH]c2ccccc12)C(=O)N[C@@H](CC(C)C)C(=O)N[C@H](C(=O)N[C@@H](CCCCN)C(=O)NCC(=O)N[C@@H](CCCNC(=N)N)C(=O)NCC(N)=O)C(C)C
B3: Seq ID No. 08 (peptide)
peptide: H[2Furoyl(5-aminomethyl)]GTFTSDVSSYLEGQAAKEFIAWLVKGR-NH2
modifications: N-terminus assumed
SMILES: CC[C@H](C)[C@H](NC(=O)[C@H](Cc1ccccc1)NC(=O)[C@H](CCC(=O)O)NC(=O)[C@H](CCCCN)NC(=O)[C@H](C)NC(=O)[C@H](C)NC(=O)[C@H](CCC(N)=O)NC(=O)CNC(=O)[C@H](CCC(=O)O)NC(=O)[C@H](CC(C)C)NC(=O)[C@H](Cc1ccc(O)cc1)NC(=O)[C@H](CO)NC(=O)[C@H](CO)NC(=O)[C@@H](NC(=O)[C@H](CC(=O)O)NC(=O)[C@H](CO)NC(=O)[C@@H](NC(=O)[C@H](Cc1ccccc1)NC(=O)[C@@H](NC(=O)CNC(=O)c1ccc(CNC(=O)[C@@H](N)Cc2c[nH]cn2)o1)[C@@H](C)O)[C@@H](C)O)C(C)C)C(=O)N[C@@H](C)C(=O)N[C@@H](Cc1c[nH]c2ccccc12)C(=O)N[C@@H](CC(C)C)C(=O)N[C@H](C(=O)N[C@@H](CCCCN)C(=O)NCC(=O)N[C@@H](CCCNC(=N)N)C(N)=O)C(C)C
B4: Seq ID No. 04 (peptide)
peptide: H[2Furoyl(5-aminomethyl)]EGTFTSD[Aib]SSYLEGQAAKEFI[Aib]WLVKGR-NH2
modifications: N-terminus assumed
SMILES: CC[C@H](C)[C@H](NC(=O)[C@H](Cc1ccccc1)NC(=O)[C@H](CCC(=O)O)NC(=O)[C@H](CCCCN)NC(=O)[C@H](C)NC(=O)[C@H](C)NC(=O)[C@H](CCC(N)=O)NC(=O)CNC(=O)[C@H](CCC(=O)O)NC(=O)[C@H](CC(C)C)NC(=O)[C@H](Cc1ccc(O)cc1)NC(=O)[C@H](CO)NC(=O)[C@H](CO)NC(=O)C(C)(C)NC(=O)[C@H](CC(=O)O)NC(=O)[C@H](CO)NC(=O)[C@@H](NC(=O)[C@H](Cc1ccccc1)NC(=O)[C@@H](NC(=O)CNC(=O)[C@H](CCC(=O)O)NC(=O)c1ccc(CNC(=O)[C@@H](N)Cc2c[nH]cn2)o1)[C@@H](C)O)[C@@H](C)O)C(=O)NC(C)(C)C(=O)N[C@@H](Cc1c[nH]c2ccccc12)C(=O)N[C@@H](CC(C)C)C(=O)N[C@H](C(=O)N[C@@H](CCCCN)C(=O)NCC(=O)N[C@@H](CCCNC(=N)N)C(N)=O)C(C)C
B5: Seq ID No. 05 (peptide)
peptide: HGEGTFTSDXSSYLEGQAAKEFIXWLVKGR
modifications: Xaa1 at position 10 and Xaa2 at position 24 are dialkylated aminoacid (alpha-aminoisobutyric acid); C-terminal amide (Arg-NH2)
B6: Seq ID No. 09 (peptide)
peptide: HXEGTFTSDXSSYLEGQAAKEFIXWLVKGRG
modifications: Xaa1 at position 2 is furan aminoacid (5-aminomethyl-furan-2 carboxylic acid); Xaa2 at position 10 and Xaa3 at position 24 are dialkylated aminoacid (alpha-aminoisobutyric acid); C-terminal amide (Gly-NH2)
B7: Seq ID No. 07 (peptide)
peptide: H[X2]GTFTSDVSSYLEGQAAKEFIAWLVKGR-NH2
modifications: N-terminus assumed
SMILES: CC[C@H](C)[C@H](NC(=O)[C@H](Cc1ccccc1)NC(=O)[C@H](CCC(=O)O)NC(=O)[C@H](CCCCN)NC(=O)[C@H](C)NC(=O)[C@H](C)NC(=O)[C@H](CCC(N)=O)NC(=O)CNC(=O)[C@H](CCC(=O)O)NC(=O)[C@H](CC(C)C)NC(=O)[C@H](Cc1ccc(O)cc1)NC(=O)[C@H](CO)NC(=O)[C@H](CO)NC(=O)[C@@H](NC(=O)[C@H](CC(=O)O)NC(=O)[C@H](CO)NC(=O)[C@@H](NC(=O)[C@H](Cc1ccccc1)NC(=O)[C@@H](NC(=O)CNC(=O)[C@H]1O[C@H](OC)[C@H](NC(=O)[C@@H](N)Cc2c[nH]cn2)[C@@H](O)[C@@H]1O)[C@@H](C)O)[C@@H](C)O)C(C)C)C(=O)N[C@@H](C)C(=O)N[C@@H](Cc1c[nH]c2ccccc12)C(=O)N[C@@H](CC(C)C)C(=O)N[C@H](C(=O)N[C@@H](CCCCN)C(=O)NCC(=O)N[C@@H](CCCNC(=N)N)C(N)=O)C(C)C
B8: Seq ID No. 11 (peptide)
peptide: HXGTFTSDVSSYLEGQAAKEFIAWLVKXR
modifications: Xaa1 at position 2 is furan aminoacid (5-aminomethyl-furan-2 carboxylic acid); Xaa2 at position 28 is dialkylated aminoacid (alpha-aminoisobutyric acid); C-terminal amide (Arg-NH2)

biological target: GLP-1 receptor; test: cell-based or functional assay

In order of rising “EC50, Receptor Functional assay (intracellular cAMP in CHO/GLP-1R cells)” value:
1. B1  0.043 nM
2. B7  0.056 nM
3. H[2Furoyl(5-aminomethyl)]EGTFTSDVSSYLEGQAAKEFIAWLVKGR-NH2 [Seq ID No. 03]  0.061 nM
4. B4  0.072 nM
5. B5  0.083 nM
6. B8  0.102 nM
7. H[2Furoyl(5-aminomethyl)]EGTFTSDVSSYLEGQAAKEFIAWLVKGRG-NH2 [Seq ID No. 01]  0.103 nM
8. B3  0.601 nM
9. H[X2]EGTFTSDVSSYLEGQAAKEFIAWLVKGR-NH2 [Seq ID No. 06]  0.838 nM
10. B6  1 nM
11. H[2Furoyl(5-aminomethyl)]GTFTSDVLSYQEGQAAKLFIEWLVKGR-NH2 [Seq ID No. 12]  2.24 nM
12. B2  3.38 nM
